According to paper PMC6220335, “Molecular structure of promoter-bound yeast TFIID” (Nature Communications, 2018):
One block for each binder: values may come before it.

Columns and labels:
[1] = molecular target: T1, Taf12, subunit of Komagataella phaffii TFIID (Komagataella phaffii, UniProt F2QSK7 1-609); assay: cross-linking; 50 µg purified TFIID, 3 mM BS3, 2 h at 25 °C; trypsin, SCX fractionation, Orbitrap Fusion MS; pLink and Nexus, 5% FDR; conditions: both partners purified
T1 construct: Taf12, TFIID subunit of the yeast Komagataella phaffii (formerly Pichia pastoris); histone-fold domain modelled in the cryo-EM map; source: endogenous, K. phaffii nuclear extract; co-purified in TFIID by SBP-tagged Taf2 (streptavidin beads, sucrose gradient)
T1 sequence (looked up): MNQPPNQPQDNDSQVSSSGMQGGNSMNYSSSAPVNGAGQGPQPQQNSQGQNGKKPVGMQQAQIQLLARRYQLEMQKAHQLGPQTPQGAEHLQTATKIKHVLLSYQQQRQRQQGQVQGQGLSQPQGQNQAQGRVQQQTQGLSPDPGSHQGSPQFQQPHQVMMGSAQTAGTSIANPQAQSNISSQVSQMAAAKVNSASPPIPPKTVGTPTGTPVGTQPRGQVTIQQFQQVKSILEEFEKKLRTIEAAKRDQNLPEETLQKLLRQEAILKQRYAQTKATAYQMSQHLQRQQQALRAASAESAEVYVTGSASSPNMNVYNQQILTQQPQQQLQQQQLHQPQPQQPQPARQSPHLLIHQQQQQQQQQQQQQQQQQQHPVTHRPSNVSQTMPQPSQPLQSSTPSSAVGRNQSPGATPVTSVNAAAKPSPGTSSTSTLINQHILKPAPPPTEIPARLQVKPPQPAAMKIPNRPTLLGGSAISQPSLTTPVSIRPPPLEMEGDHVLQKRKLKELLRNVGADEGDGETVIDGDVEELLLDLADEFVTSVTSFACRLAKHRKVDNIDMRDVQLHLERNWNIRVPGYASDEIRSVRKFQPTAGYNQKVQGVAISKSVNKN

[2] = molecular target: T2, Taf4, subunit of Komagataella phaffii TFIID (Komagataella phaffii, UniProt F2QWX2 1-411); assay: as above; conditions: both partners purified
T2 construct: Taf4, TFIID subunit of the yeast Komagataella phaffii (formerly Pichia pastoris); histone-fold domain modelled in the cryo-EM map; source: endogenous, K. phaffii nuclear extract; co-purified in TFIID by SBP-tagged Taf2 (streptavidin beads, sucrose gradient)
T2 sequence (looked up): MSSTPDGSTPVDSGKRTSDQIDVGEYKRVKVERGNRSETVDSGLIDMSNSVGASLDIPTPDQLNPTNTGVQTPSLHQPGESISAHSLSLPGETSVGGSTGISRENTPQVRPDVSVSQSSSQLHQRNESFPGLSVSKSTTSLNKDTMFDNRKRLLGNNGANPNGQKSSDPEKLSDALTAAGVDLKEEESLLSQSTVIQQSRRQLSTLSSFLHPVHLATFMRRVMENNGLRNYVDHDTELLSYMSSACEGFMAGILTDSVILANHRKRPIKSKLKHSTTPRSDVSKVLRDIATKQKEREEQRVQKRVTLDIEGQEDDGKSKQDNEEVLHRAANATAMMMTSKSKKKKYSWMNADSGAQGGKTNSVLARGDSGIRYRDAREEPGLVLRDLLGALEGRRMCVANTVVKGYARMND

[3] = molecular target: T3, Taf5, subunit of Komagataella phaffii TFIID (Komagataella phaffii, UniProt F2QWD3 1-722); assay: as above; conditions: both partners purified
T3 construct: Taf5, TFIID subunit of the yeast Komagataella phaffii (formerly Pichia pastoris); WD40 repeat and NTD (residues 99–243) modelled in the cryo-EM map; two copies in holo-TFIID; source: endogenous, K. phaffii nuclear extract; co-purified in TFIID by SBP-tagged Taf2 (streptavidin beads, sucrose gradient)
T3 sequence (looked up): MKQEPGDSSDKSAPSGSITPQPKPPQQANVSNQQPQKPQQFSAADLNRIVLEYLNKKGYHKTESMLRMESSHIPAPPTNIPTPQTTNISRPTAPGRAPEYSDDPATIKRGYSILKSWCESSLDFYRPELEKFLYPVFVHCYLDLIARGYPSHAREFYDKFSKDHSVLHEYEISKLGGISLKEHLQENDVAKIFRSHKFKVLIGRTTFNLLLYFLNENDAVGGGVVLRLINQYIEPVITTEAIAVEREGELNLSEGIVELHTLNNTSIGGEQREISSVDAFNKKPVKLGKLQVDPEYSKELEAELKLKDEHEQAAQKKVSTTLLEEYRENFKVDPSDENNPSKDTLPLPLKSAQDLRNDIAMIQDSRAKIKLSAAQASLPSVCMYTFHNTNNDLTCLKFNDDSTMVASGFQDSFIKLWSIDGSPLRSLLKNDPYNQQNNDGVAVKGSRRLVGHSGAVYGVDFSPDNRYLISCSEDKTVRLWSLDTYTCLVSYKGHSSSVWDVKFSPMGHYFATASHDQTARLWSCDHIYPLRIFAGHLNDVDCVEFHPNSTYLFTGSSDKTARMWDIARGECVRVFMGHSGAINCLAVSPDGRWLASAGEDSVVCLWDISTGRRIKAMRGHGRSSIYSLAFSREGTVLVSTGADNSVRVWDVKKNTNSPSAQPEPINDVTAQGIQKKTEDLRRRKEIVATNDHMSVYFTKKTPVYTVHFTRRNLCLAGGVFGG

[4] = molecular target: T4, Taf8, subunit of Komagataella phaffii TFIID (Komagataella phaffii, UniProt F2QT15 1-517); assay: cryo-EM structure; purified TFIID (0.4 µM) with two-fold excess of TFIIA and 2.5–3-fold excess of pGAP promoter DNA, cross-linked with 0.1% glutaraldehyde; focused refinement of the lobes (Taf2 lobe 4.5 Å, Twin lobe 4.8 Å); homology models docked; conditions: both partners purified
T4 construct: Taf8, TFIID subunit of the yeast Komagataella phaffii (formerly Pichia pastoris); putative helices placed in the cryo-EM map; also called KpTaf8; source: endogenous, K. phaffii nuclear extract; co-purified in TFIID by SBP-tagged Taf2 (streptavidin beads, sucrose gradient)
T4 sequence (looked up): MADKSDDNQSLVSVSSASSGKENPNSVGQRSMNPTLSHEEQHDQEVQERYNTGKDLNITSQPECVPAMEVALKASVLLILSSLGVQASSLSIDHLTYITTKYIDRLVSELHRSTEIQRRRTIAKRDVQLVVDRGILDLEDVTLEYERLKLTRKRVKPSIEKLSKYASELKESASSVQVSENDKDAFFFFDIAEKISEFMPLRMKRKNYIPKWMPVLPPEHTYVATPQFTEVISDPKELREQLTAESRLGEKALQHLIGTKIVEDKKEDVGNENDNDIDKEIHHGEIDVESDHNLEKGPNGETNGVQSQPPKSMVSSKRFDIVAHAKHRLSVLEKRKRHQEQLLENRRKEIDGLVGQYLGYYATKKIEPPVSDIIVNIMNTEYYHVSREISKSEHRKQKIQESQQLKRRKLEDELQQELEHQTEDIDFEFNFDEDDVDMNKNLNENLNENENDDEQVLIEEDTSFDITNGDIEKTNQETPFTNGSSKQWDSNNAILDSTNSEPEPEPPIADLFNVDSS

[5] = molecular target: T5, Taf2 with C-terminal streptavidin-binding peptide tag, subunit of Komagataella phaffii TFIID (Komagataella phaffii, UniProt F2QRH9 1-1571); assay: affinity purification with mass spectrometry; TFIID purified from K. phaffii nuclear extract by the SBP tag at the C-terminus of Taf2 (streptavidin beads, 250 mM potassium acetate, elution with 10 mM biotin, 10–30% sucrose gradient); SDS-PAGE and mass spectrometry of the purified complex; conditions: partners not purified
T5 construct: Taf2, TFIID subunit of the yeast Komagataella phaffii (formerly Pichia pastoris); residues 36 to 1194 modelled in the cryo-EM map; bait of the purification; also called SBP-tagged Taf2; source: K. phaffii strain with SBP-tagged Taf2, nuclear extract; purified (streptavidin beads, biotin elution, sucrose gradient)

binding result [1]: binds | binding result [2]: binds | binding result [3]: binds
B1: Taf11, subunit of Komagataella phaffii TFIID (natural protein, UniProt F2QRB1 1-281, looked up)
chain: MSPKPESEIDQGPSVSVTSAEEKSRLEEVKDVHEDPKAEEGLVSAPQGSDTLGQEGKTEKEQNEAKGDIEEESEESAEEDEEEEEEIVDDQISYALNYLFQDIHEKIRLRETQRDTTQDEFELSRQEKVGLLLENFDQDQMTRYEFFRRANVNKSVAKRIVQSVLGQSINNNVALLVSTVSKMFVGEMVEKAKEVQSRRQKAQILEQISQRKAAIKNIRKRDLDESVVDQIMNSKRIRIPKDEPLSPEDIREAWRLYQLETNVLPSNQWRRQGGGDGNMFR
notes: Taf11, TFIID subunit of the yeast Komagataella phaffii (formerly Pichia pastoris); histone-fold domain modelled in the cryo-EM map; source: endogenous, K. phaffii nuclear extract; co-purified in TFIID by SBP-tagged Taf2 (streptavidin beads, sucrose gradient)

binding result [4]: binds | binding result [5]: binds
B2: Taf14, subunit of Komagataella phaffii TFIID (natural protein, UniProt F2QLE3 1-247, looked up)
chain: MSDLKRTVRITTTQNVLKDIPPIEKGFPMRKWSISVSLLNDQGKEIPATIFDKVTYHLHPTFENPVRVFKQPPFKIEEQGWGEFDMKIALTIAEKGGERKISHDLNFLKEKYIVDHVISVPTNKPGLLALLAESGPVPSSEGATTPGLSSVTEKRKTSLVGDVKAKKVKTSSGAVKGGVDLEKLADGLTKLSEDDLLGVVQMVTDNRSPEMNIKNDVDEGEFTMDLYSLPDSLLKSLWEYVKKHADV
notes: Taf14, yeast-specific TFIID subunit of Komagataella phaffii (formerly Pichia pastoris); YEATS domain docked in the Taf2 lobe of the cryo-EM map; source: endogenous, K. phaffii nuclear extract; co-purified in TFIID by SBP-tagged Taf2 (streptavidin beads, sucrose gradient)
